B1: Telisotuzumab analog-ADC (conjugate, chains of the INN, looked up)
VH: QVQLVQSGAEVKKPGASVKVSCKASGYIFTAYTMHWVRQAPGQGLEWMGWIKPNNGLANYAQKFQGRVTMTRDTSISTAYMELSRLRSDDTAVYYCARSEITTEFDYWGQGTLVTVSS
VL: DIVMTQSPDSLAVSLGERATINCKSSESVDSYANSFLHWYQQKPGQPPKLLIYRASTRESGVPDRFSGSGSGTDFTLTISSLQAEDVAVYYCQQSKEDPLTFGGGTKVEIK
modifications: antibody-drug conjugate payload
B2: Amivantamab: Amivantamab (Janssen, Reference No.: LFS0L03), bispecific antibody targeting EGFR and MET (antibody, chains of the INN, looked up, V domains shown)
VH: QVQLVESGGGVVQPGRSLRLSCAASGFTFSTYGMHWVRQAPGKGLEWVAVIWDDGSYKYYGDSVKGRFTISRDNSKNTLYLQMNSLRAEDTAVYYCARDGITMVRGVMKDYFDYWGQGTLVTVSS
VL: AIQLTQSPSSLSASVGDRVTITCRASQDISSALVWYQQKPGKAPKLLIYDASSLESGVPSRFSGSESGTDFTLTISSLQPEDFATYYCQQFNSYPLTFGGGTKVEIK
VH2: QVQLVQSGAEVKKPGASVKVSCETSGYTFTSYGISWVRQAPGHGLEWMGWISAYNGYTNYAQKLQGRVTMTTDTSTSTAYMELRSLRSDDTAVYYCARDLRGTNYFDYWGQGTLVTVSS
VL2: DIQMTQSPSSVSASVGDRVTITCRASQGISNWLAWFQHKPGKAPKLLIYAASSLLSGVPSRFSGSGSGTDFTLTISSLQPEDFATYYCQQANSFPITFGQGTRLEIK

Key:
NUGC-4 cells = assay: NUGC-4 xenograft model (gastric cancer); assay type: in vivo, B-NDG mice; conditions: 3 mg/kg i.v. QW x2
[1] = test system: patient-derived ampullary tumor fragments; assay: Human ampullary carcinoma PDX model; assay type: in vivo, B-NDG mice; conditions: 10 mg/kg i.v. BIW x4
Procedure: The ADCs were tested for their effect in human ampullary carcinoma PDX model.
The mice were then injected with PBS, ADCs or Amivantamab (Janssen, Cat #: LFS0L03) by intravenous (i.v.) administration.

NCI-H1975 cells = assay: NCI-H1975 xenograft in Balb/c nude mice; assay type: in vivo; conditions: 10 mg/kg, BIW, 4 administrations, i.v.
Procedure: The mice were then injected with PBS, E-6C4-M-2F II-ADC (1.5 mg/kg, 3 mg/kg or 6 mg/kg, QW, 2 administrations in total) or Amivantamab (Janssen, Reference No.: LFS0L03) (10 mg/kg, BIW, 4 administrations in total) by intravenous (i.v.) administration.

[2] = test system: patient-derived gastric tumor fragments; assay: Human gastric cancer PDX model; assay type: in vivo, B-NDG mice; conditions: 10 mg/kg i.v. BIW x6
Procedure: The mice were then injected with PBS, ADCs or Amivantamab (Janssen, Reference No.: LFS01L03) by intravenous (i.v.) administration.

Row | Molecule | Tumor volume Day 14 (NUGC-4 cells) [mm^3] | TGI (%) (NUGC-4 cells; Day 28) | Tumor volume Day 0 (NUGC-4 cells; day of grouping) [mm^3] | Tumor volume Day 28 (NUGC-4 cells; end of experiment) [mm^3] | Tumor-free (Day 28) (NUGC-4 cells; number of tumor-free mice/total) | Tumor volume Day 14 [1] [mm^3] | Tumor volume Day 21 [1] [mm^3] | TGI (%) ([1]; Day 21) | Tumor volume Day 0 ([1]; day of grouping) [mm^3] | TGI (NCI-H1975 cells) [%] | Tumor volume Day 28 [2] [mm^3] | Tumor volume Day 56 [2] [mm^3] | TGI (%) ([2]; Day 56) | Tumor volume Day 0 ([2]; day of grouping) [mm^3] | Survival ([2]; surviving/total mice)
1 | B1 | 60 ± 10 | 108.1 | 198 ± 14 | 88 ± 67 | 0/5 | – | – | – | – | – | – | – | – | – | –
2 | B2 | – | – | – | – | – | 756 ± 78 | 1047 ± 104 | 8 | 273 ± 13 | 12.9 | 40 ± 6 | 643 ± 391 | 86.3 | 262 ± 24 | 5/5

Reference: patent publication US20250382373A1, “ANTI-EGFR/MET ANTIBODIES AND USES THEREOF” (Biocytogen Pharmaceuticals (Beijing) Co., Ltd., priority 2022, published 2025)
